US20260191937A1, “AGENTS, COMPOSITIONS AND METHODS FOR MODULATING IMMUNITY” (The University of Queensland, priority 2022, published 2026)
Numbering of substitutions follows the chain as printed.

B1: C-terminal deacetylase domain of HDAC7: C-terminal HDAC7, amino acid 498-938, SEQ ID NO:23 (protein, listed as Mus musculus)
chain: MVLNSSETPATGLVYDSVMLKHQCSCGDNSKHPEHAGRIQSIWSRLQERGLRSQCECLRGRKASLEELQSVHSERHVLLYGTNPLSRLKLDNGKLTGLLAQRTFVMLPCGGVGVDTDTIWNELHSSNAARWAAGSVTDLAFKVASRELKNGFAVVRPPGHHADHSTAMGFCFFNSVAIACRQLQQHGKASKILIVDWDVHHGNGTQQTFYQDPSVLYISLHRHDDGNFFPGSGAVDEVGTGSGEGFNVNVAWAGGLDPPMGDPEYLAAFRIVVMPIAREFAPDLVLVSAGFDAAEGHPAPLGGYHVSAKCFGYMTQQLMNLAGGAVVLALEGGHDLTAICDASEACVAALLGNKVDPLSEESWKQKPNLSAIRSLEAVVRVHRKYWGCMQRLASCPDSWLPRVPGADAEVEAVTALASLSVGILAEDRPSERLVEEEEPMNL
B2: HDAC7: Mouse HDAC7 lacking the first 22 amino acids, SEQ ID NO:13, expression construct (protein, listed as Mus musculus)
chain: MDLRVGQRPTVEPPPEPALLTLQHPQRLHRHLFLAGLHQQQRSAEPMRLSMDPPMPELQGGQQEQELRQLLNKDKSKRSAVASSVVKQKLAEVILKKQQAALERTVHPSSPSIPYRTLEPLDTEGAARSVLSSFLPPVPSLPTEPPEHFPLRKTVSEPNLKLRYKPKKSLERRKNPLLRKESAPPSLRRRPAETLGDSSPSSSSTPASGCSSPNDSEHGPNPALGSEADGDRRTHSTLGPRGPVLGNPHAPLFLHHGLEPEAGGTLPSRLQPILLLDPSVSHAPLWTVPGLGPLPFHFAQPLLTTERLSGSGLHRPLNRTRSEPLPPSATASPLLAPLQPRQDRLKPHVQLIKPAISPPQRPAKPSEKPRLRQIPSAEDLETDGGGVGPMANDGLEHRESGRGPPEGRGSISLQQHQQVPPWEQQHLAGRLSQGSPGDSVLIPLAQVGHRPLSRTQSSPAAPVSMLSPEPTCQTQVLNSSETPATGLVYDSVMLKHQCSCGDNSKHPEHAGRIQSIWSRLQERGLRSQCECLRGRKASLEELQSVHSERHVLLYGTNPLSRLKLDNGKLTGLLAQRTFVMLPCGGVGVDTDTIWNELHSSNAARWAAGSVTDLAFKVASRELKNGFAVVRPPGHHADHSTAMGFCFFNSVAIACRQLQQHGKASKILIVDWDVHHGNGTQQTFYQDPSVLYISLHRHDDGNFFPGSGAVDEVGTGSGEGFNVNVAWAGGLDPPMGDPEYLAAFRIVVMPIAREFAPDLVLVSAGFDAAEGHPAPLGGYHVSAKCFGYMTQQLMNLAGGAVVLALEGGHDLTAICDASEACVAALLGNKVDPLSEESWKQKPNLSAIRSLEAVVRVHRKYWGCMQRLASCPDSWLPRVPGADAEVEAVTALASLSVGILAEDRPSERLVEEEEPMNL
B3: ED HDAC7: enzyme-dead mutant HDAC7 carrying an H-to-A mutation, SEQ ID NO:14 (protein)
chain: B2 chain with H635A
B4: N-terminal domain of HDAC7: N-terminal HDAC7, amino acid 23-504, SEQ ID NO:15 (protein, listed as Mus musculus)
chain: MDLRVGQRPTVEPPPEPALLTLQHPQRLHRHLFLAGLHQQQRSAEPMRLSMDPPMPELQGGQQEQELRQLLNKDKSKRSAVASSVVKQKLAEVILKKQQAALERTVHPSSPSIPYRTLEPLDTEGAARSVLSSFLPPVPSLPTEPPEHFPLRKTVSEPNLKLRYKPKKSLERRKNPLLRKESAPPSLRRRPAETLGDSSPSSSSTPASGCSSPNDSEHGPNPALGSEADGDRRTHSTLGPRGPVLGNPHAPLFLHHGLEPEAGGTLPSRLQPILLLDPSVSHAPLWTVPGLGPLPFHFAQPLLTTERLSGSGLHRPLNRTRSEPLPPSATASPLLAPLQPRQDRLKPHVQLIKPAISPPQRPAKPSEKPRLRQIPSAEDLETDGGGVGPMANDGLEHRESGRGPPEGRGSISLQQHQQVPPWEQQHLAGRLSQGSPGDSVLIPLAQVGHRPLSRTQSSPAAPVSMLSPEPTCQTQVLNSSET

Tests used:
[1] = system: uropathogenic Escherichia coli (UPEC) strain EC958; assay: Growth of UPEC strain EC958 with or without H2O2 oxidative stress (OD600, 12 h); format: cell-based; conditions: 0.8 mM H2O2
Description: FIG. 5 is a graphical representation showing effect of increasing RL5P concentrations on the growth of uropathogenic Escherichia coli (UPEC) strain EC958 under conditions of oxidative stress in the form of 0.8 mM H2O2. (A) EC958 was cultured±H2O2 (0.8 mM) in the presence of the indicated concentrations of RL5P for 12 h, during which growth was assessed (A600 at the indicated time points); (B) Area under the curve analysis for the 12 h period was calculated thereafter and is presented in FIG. 5B. Data are compiled from four independent experiments and are presented as mean±SEM. Each symbol represents a different experiment. Statistical significance for (B) was determined using repeated measure two-way ANOVA followed by non-parametric Kruskal Wallis test followed by Dunn's multiple comparison test (ns—not significant; * p<0.05; **** p<0.0001).
FIG. 6 is a graphical representation showing effect of increasing RL5P concentrations on the growth of UPEC under conditions of oxidative stress in the form of 1 mM H2O2. (A) EC958 was cultured±H2O2 (1 mM) in the presence of the indicated concentrations of RL5P for 12 h, during which growth was assessed (A600 at the indicated time points); (B) EC958 was cultured in the presence of the indicated concentrations of RL5P and the absence of H2O2 for 12 h, during which growth was assessed (A600 at the indicated time points). Data are compiled from four independent experiments and are presented as mean±SEM.
FIG. 7 is a graphical representation showing the effect of RL5P and 6-phosphogluconate (6PG) on the on the growth of UPEC under conditions of oxidative stress in the form of H202. (A) EC958 was cultured±H2O2 (0.8 mM) in the presence of the indicated concentration of RL5P or 6PG for 12 h, during which growth was assessed (A600 at the indicated time points); (B). Each symbol represents a different experiment. Statistical significance for (B) was determined using repeated measure two-way ANOVA followed by non-parametric Kruskal Wallis test followed by Dunn's multiple comparison test (ns—not significant; * p<0.05; **** p<0.0001).
All bacterial strains were cultured at 37° C. on solid or liquid Luria-Bertani (LB) medium. The non-pathogenic E. coli K12 strain MG1655 (Blattner et al., 1997. Science. 277:1453-1462) and EC958, a representative strain of the globally-disseminated multidrug-resistant ST131 clone isolated from the urine of a patient with a urinary tract infection (Totsika et al., 2011, PloS one. 6:e26578-e26578; Petty et al., 2014, Proc Natl Acad Sci USA. 111:5694-5699), were used in this study. […] Bacterial growth was assessed by monitoring OD600 using a POLARstar Omega (BMG Labtech) at 20-30 min intervals.

6PGD = molecular target: T1, 6PGD (Mus musculus, UniProt Q9DCD0); assay: 6PGD enzyme activity in lysates of HEK293 cells co-transfected with 6PGD and HDAC7 constructs; format: biochemical; conditions: molar ratio 1:1 (6PGD:HDAC), 24 h after transfection
T1 construct: host or cells: HEK293
T1 sequence (Q9DCD0 1-483): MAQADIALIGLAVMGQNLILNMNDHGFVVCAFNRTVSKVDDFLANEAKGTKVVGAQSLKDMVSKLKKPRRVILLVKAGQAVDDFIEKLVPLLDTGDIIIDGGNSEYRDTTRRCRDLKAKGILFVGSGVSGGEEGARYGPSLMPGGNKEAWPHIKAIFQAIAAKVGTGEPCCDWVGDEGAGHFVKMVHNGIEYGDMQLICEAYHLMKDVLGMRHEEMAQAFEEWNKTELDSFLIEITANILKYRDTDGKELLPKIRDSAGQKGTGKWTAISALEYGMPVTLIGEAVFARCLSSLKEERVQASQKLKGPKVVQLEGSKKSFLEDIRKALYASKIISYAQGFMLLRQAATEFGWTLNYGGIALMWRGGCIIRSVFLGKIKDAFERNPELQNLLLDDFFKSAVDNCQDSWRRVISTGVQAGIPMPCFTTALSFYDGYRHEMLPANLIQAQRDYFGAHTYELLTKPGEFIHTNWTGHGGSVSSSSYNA
Description: FIG. 19 is a graphical representation of HDAC7 increasing 6PGD enzyme activity in HEK293 cells. HEK293 cells were transfected with expression constructs encoding (A-B) 6PGD and/or HDAC7, (C-D) 6PGD and HDAC7 wild type (WT) or HDAC7 enzyme-dead (ED), (E-F) 6PGD and full-length (HDAC7), N-terminal HDAC7 (N-HDAC7) or C-terminal HDAC7 (C-HDAC7) at a molar ratio of 1:1 (6PGD:HDAC). After 24 h, cells were lysed and the enzymatic activity of 6PGD in lysates was measured. […] Statistical analysis was performed using repeated measure one-way ANOVA followed by Dunnett's multiple comparison (ns, not significant; * p<0.05; ** p<0.01). (B, D, F) Levels of 6PGD (Flag), HDAC7 (V5) and GAPDH expression in cell lysates were assessed via western blot.
6PGD activity can be enhanced by co-delivering HDAC7. HEK293 cells were plated in 12-well plates and incubated overnight at 37° C. The Lipofectamine 2000 (Invitrogen) transfection reagent was prepared in OptiMEM to a final concentration of 1 μg DNA per μL and incubated at room temperature for 5 min. Plasmid DNA was diluted in OptiMEM (Gibco) and then mixed with Lipofectamine 2000, after which the transfection mixture was incubated at room temperature for 30 min. Prior to transfection, cell culture media was replaced with OptiMEM, after which the transfection mixture was added into cells. Cells were then incubated at 37° C. for 6-8 h before being supplemented with fresh OptiMEM. 24 h post-transfection, culture supernatants were discarded, and cells were briefly washed with DPBS and lysed for different analyses.
Mouse HDAC7 (the unspliced isoform lacking the first 22 amino acids), an enzyme-dead (ED) mutant HDAC7 carrying an H-to-A mutation (Das Gupta et al., 2020, Cell Rep. 30:2712-2728.e2718), N-terminal HDAC7 (N-HDAC7, amino acid 23-504, comprising a PHA03247 super family motif corresponding to the herpes simplex virus-1 UL36 large tegument protein, which is known to comprise deubiquitinating activity) and C-terminal HDAC7 (C-HDAC7, amino acid 498-938) were cloned in pEF6/V5-His-TOPO vectors. Mouse 6PGD was cloned in a pCMV expression vector (MG53165-CF, Sino Biologicals). HEK293 cells were transiently transfected with expression constructs encoding 6PGD and HDAC7 at a molar ratio of 1:1. 24 h after transfection, cells were lysed and lysates were subjected to 6PGD activity assays using an in vitro assay (Abcam), as per the manufacturer's instructions. The enzymatic activity was determined by measuring absorbance at 460 nm in kinetic mode using a plate reader (Infinite M Plex, Tecan).

Row | Molecule | UPEC growth under oxidative stress [1] | enzymatic activity of 6PGD relative to cells transfected with 6PGD alone (6PGD) | enzymatic activity of 6PGD relative to cells transfected with 6PGD alone (6PGD; listed as WT HDAC7)
1 | O=C(O)[C@H](O)[C@@H](O)[C@H](O)[C@H](O)COP(=O)(O)O [6PG, 6-phosphogluconate, reference compound] | did not affect UPEC growth | – | –
2 | B1 | – | does not activate 6PGD | –
3 | B2 | – | significantly increases 6PGD activity | significantly increased the enzymatic activity of 6PGD to a similar level
4 | B3 | – | significantly increased the enzymatic activity of 6PGD to a similar level | –
5 | B4 | – | increased the enzymatic activity of 6PGD to similar levels to that of the WT HDAC7 | –
